Experimental data as given in the RNAGym collection of RNA variant scans (doi:10.1073/pnas.2313332121).

B1: TPR t1 (parent)
chain: GACCAAUCUGCCCUCAGAGCUCGAGAACAUCUUCGGAUGCAGAGGAGGCAGGCUUCGGUGGCGCGAUAGCGCCAACGUCCUCAACCUCCAAUGCAUCCCACCACAUGAUGAUGCCUGAAGAGCCUUGGUUUUUUG

Variants of: B1
Test: polymerase ribozyme fitness, log enrichment relative to wild type (log ratio); higher = more active; in vitro selection for triplet polymerase activity
Summary of the method: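 Streptavidin-bead capture of gel-excised extended constructs, followed by RT-PCR, closed a single triplicate in vitro selection round. That round began by annealing PCR-built, transcribed mutant libraries of each subunit of a heterodimeric triplet polymerase ribozyme with a biotinylated primer, the partner subunit and triplets, then incubating them frozen at −7 °C. After Illumina sequencing of inputs and outputs, genotypes needed ≥10 input reads and ≥1 read per output. Fitness is the base-2 logarithm of genotype enrichment over wild-type enrichment, using inverse-variance-weighted replicate averages.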

First: GACCAAUCUGGCCUCGGAGCUCGAGAACAUCUUCGGAUGCAGAGGAGGCAGGCUUCGGUGGCGCGAUAGCUCCAACGUCCUCAACCUCCAAUGCAUCCCAACACAUGAUGAUGCCUGAAGAGCCUUGUUUUUUUG
Second: GACCAAUCUGACCUCAGAGCUCGAGAACAUCUUCGGAUGCAGAGGAGGCAGGCUUCGGUGGCGCGAUAGCGCCAACGUCCUCAACCUCCAAUGCAUCCCACCACAUGAUGAGGCCUGAAGAGCCUUGGUUUUUUG
The “polymerase ribozyme fitness (log ratio)” value of the first is lower: -3.82 for the first, -1.43 for the second.

First: GACCAAUCUGGCCUCAGAGCUCGAGAUCAUCUUCGAAUGCAGAGGAGGCAGGCUUCGAUGGCGCGAUAGCGCCAACGUCCUCAACCUCCAAUGCAUCCCACCACAUGAUGAUGCCUGAAGAGCCUUGGUUUUUUG
Second: GACCAAUCUGGCCUCAGAGCUCGAGAACAUCUUCGGGUGGAGAGGAGGCAGGCUUCGGUGGCGCGAUAGCGACAACGUCCUCAACCUCCAAUGCAUCCCAUCACAUGAUGAUGCCUGAAGAGACUUGGUUUUUUG
The “polymerase ribozyme fitness (log ratio)” value of the first is lower: -3.1 for the first, 0.0924 for the second.

Compared with GACCAAUCUGGCCUCAGAGCUCGAGAACAUCUUCGGGUGCAGAGGAGGCAGGCUUCGGUGGCGCGAUACCGCCAACGUCCUCAACCUCCAAUGCAUCCCACCACAUGAUGAUGCGUGAAGAGCCUUGGUUUUUUG, GACCAAUCUGGCCUCUGAGCUCGGGAACAUCUUCGGAUGCAGAGGACGCAGGCUUCGGUGGCUCGAUAGCGCCAACGUCCUCAACCUCCAAUGCAUCCCACCACAUGAUGCUGCCUGAAGAGCCUUGGUUUUUUG is lower in “polymerase ribozyme fitness (log ratio)” value: -3.53 for the first, -7.31 for the second.

Compared with GACCAAUCUGGCCUCAGUGCUCGAGAACAUCUUCGGAUGCUGAGGAGGCAGGCUUCAGUGGCGCGAUAGCGCCUACGUCCUCAACCUCCAAUGCAUCCCACCACAUGAUGAUGUCUGAAGAGCCUUGCUUUUUUG, GACCAAUCUGACCUCAGAGCUCGAGAACAUCUUCGGAUGCAGAGGAGGCAGGCGUCGGUGGCGCGAUAGCGCCAACGUCCUCAACCUCCAAUGCAUCCCACCACAUGAUGAUGCCUGAAGAGCCUUGGUUUUUUG is higher in “polymerase ribozyme fitness (log ratio)” value: -4.05 for the first, -2.05 for the second.

Going from GACCAAUCUGACCUCAGAGCUCGAGAACAUCUUCGGAUGCAGAGGAGGCAGGCUUCGGUGGCGCGAUAGCGCCAACGUCCUCAACCUCCAAUGCAACCCACCACAUGAUGAUCCCUGAAGAGCCUUGGUUUUUUG to GACCAAUCUGGCCUCAGAGCUCGAGAACCUCUUCGGAUGCAGAGGAGGAAGGCUUCGGUGGCGCGAUAGCGCCAACGUCCUCAACCUCCAAUGCAUCCCACCACAUGAUGAUGCCUAAAAAGCCUUGGUUUUUUG, the “polymerase ribozyme fitness (log ratio)” value rises from -5.3 to -3.48.

Compared with GACCAAUCUGGCCUCAGAGCUCGAGAACUUCUUCGGAUGCAGAGGAGGCAGGCUUCAGUAGCGCGAUAGCGCCAACGUCCUCAACCUCCAAUGCAUCUCACCACAUGAUGAUGCCUGAAGAGCCUUGGUUUUUUG, GACCAAUCUGGCCUCAGAGCUCGAGAACAUCUUCGGAUGCCGAGGAGGCAGGCUUCGGUGGCGCGAUAGCGCCAACGUCCUCAACCACCAAGGCAUCCCACCACAUGAUGAUGCCUGAAGAGCCUUGGUUUUUUG is higher in “polymerase ribozyme fitness (log ratio)” value: -4.69 for the first, -1.84 for the second.

Compared with GACCAAUCUGACCUCAGAGCUCGAGAACAUCUUCGGAUGCAGAGGAGGCAGGCUUCGGUGGCGCGAUAGCGCCAACGUCCUCAACCUCCAAUGCAGCCCACCACAUGAUGAUCCCUGAAGAGCCUUGGUAUUUUG, GACCAAUCUGACCUCAGAGCUCGAGAACAUCUUCGGAUGCAGAGGAGGCAGGCUUCGGUGGCGCGAUAGCGCCAACGUCCUCAACCGCCAAUGCAUCCCAGCACAUGAUGAUGCCUGAAGAGCCUUGGUUUUUUG is higher in “polymerase ribozyme fitness (log ratio)” value: -5.5 for the first, -2.62 for the second.

Going from GACCAAUCUGGCCUCAGUGCUCGAGAACAUCUUCGGAUGUAGAGGAGGCAGGCUUCGGUGGCGCGAUAGCGCCAACGUCCUUAACCUCCAAUGCAUCCAACCACAUGAGGAUGCCUGAAGAGCCUUGGUUUUUUG to GACCAAUCUGGCCUCAGAGCUCGAGAGCUUCUUCGGAUGCAGAGGAGGCAGGCUUCGGUGGCGCGAUAGCGCCAACGUCCUCAACCUCCAAUGUAUCCCACCACAUGAUGAUGCCUGAAGAGCCUUGGUUUUUUG, the “polymerase ribozyme fitness (log ratio)” value rises from -5.71 to -2.53.

Going from GACCAAUCUGGCCUCAGAGCUCGGGAACAUCUUCGGAUGUAGAGGAGGCAGGCUUCGGUGGCGCGAUAGCGCCAACGUCCUCAACCUCCAAUGCAUCCCACCACAUGAUGAUGCCUGAAUAGCCUUGGUUUGUUG to GACCAAUCUGGCCUCAGAGCUCGAGAACAUCUUCGGAUGCUGAGGAGGCAGGCUUAGGUGGCGCGAUAGCGUCAACGUCCUCAACCUCCAAGGCAUCCCACCACAUGAUGAUGCCUGAAGAGCCUUGGUUUUUUG, the “polymerase ribozyme fitness (log ratio)” value rises from -2.9 to -1.47.

Compared with GACCAAUCUGGCCUCAGAGCUCGAGAACAUCUUCGGCUGCAGAGGAGGCAGGUUUCGGUGGCGCGAUAGCGCCAACGUCCUCAACCUCCAAUGCAUCCCACCACAUGAUGAUGCCUGAAGAGCCUUGGUUUUUUG, GACCAAUCUGACCUCAGAGCUCGAGAACAUCUUCGGAUGCAGAGGAGGCAGGCUUCGGUGGCGCGAUAGCGCCAACGUCCUCAACCUCCAAUGCAACCCACCACAUGAUGAUGCCUGAAGAGCCUUGGUUUUUUG is lower in “polymerase ribozyme fitness (log ratio)” value: 0.228 for the first, -2.53 for the second.

In the case of GACCAAUCUGGCCUCAGAGCUCGAGAACAUCUUCGGCUGCAGAGGAGGCAGGCUUCGGUGACGCGAUAGCGCCAACGUCCUCAACCUCCAAUGCAUCCCACCACAUGAUGAUGCCUGAAGAGCCUUGGUUUUUUG, the “polymerase ribozyme fitness (log ratio)” value is reported as -0.00618.
